This assay deals with T1, human TTYH3 (Tweety homologue 3), detergent-solubilized and purified (human, UniProt Q9C0H2).
T1 construct: Tweety homologue 3 (TTYH3), human; gene (Genscript) cloned into the vector pcDXC3MS; Homodimer; source: HEK293 GNTI− cells, transiently transfected, purified in GDN (Strep-Tactin, SEC)
The experiment in a line: SEC; TTYH2 or TTYH3 with a 1.6 molar excess of sybody on a Superose 6 Increase 5/150 GL column; sybody in the TTYH peak fractions detected by SDS–PAGE. The conditions noted are these: both partners purified.

T1 sequence (Q9C0H2 2-523): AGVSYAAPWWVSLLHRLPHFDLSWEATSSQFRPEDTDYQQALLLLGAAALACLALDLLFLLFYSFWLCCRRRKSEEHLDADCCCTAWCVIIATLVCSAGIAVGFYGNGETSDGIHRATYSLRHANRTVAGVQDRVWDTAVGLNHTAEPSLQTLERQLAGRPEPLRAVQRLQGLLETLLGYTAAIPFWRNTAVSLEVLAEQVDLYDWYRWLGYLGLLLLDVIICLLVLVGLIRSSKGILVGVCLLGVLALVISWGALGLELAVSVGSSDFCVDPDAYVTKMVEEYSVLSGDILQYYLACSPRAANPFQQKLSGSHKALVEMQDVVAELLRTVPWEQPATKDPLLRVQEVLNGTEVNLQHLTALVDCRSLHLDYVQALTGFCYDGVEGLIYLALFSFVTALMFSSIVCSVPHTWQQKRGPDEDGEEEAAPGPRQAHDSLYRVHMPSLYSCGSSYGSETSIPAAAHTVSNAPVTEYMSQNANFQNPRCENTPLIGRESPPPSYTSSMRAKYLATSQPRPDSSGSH

B1: sybody Sb1^TTYH2 (VHH)
VHH: QVQLVESGGGLVQAGGSLRLSCTASGFPVAFAQMKWYRQAPGKEREWVAAIWSMGNETTYADSVKGRFTISRDNAKNTVYLQMNSLKPEDTAVYYCAVEVGYGYHGQGTQVTVS
notes: synthetic nanobody from the concave library (short CDR3); also called Syb1; source: E. coli MC1061, periplasmic expression, purified (Ni-NTA, SEC)
For B1, the binding result is reported as “no binding”.

B2: sybody Sb2^TTYH2 (VHH)
VHH: QVQLVESGGGLVQAGGSLRLSCAASGFPVTNDSMHWYRQAPGKEREWVAAIASQGRGTAYADSVKGRFTISRDNAKSTVYLQMNSLKPEDTAVYYCNVKDYGYDLQWYDYWGQGTQVTVS
notes: synthetic nanobody from the loop library (medium CDR3); For force spectroscopy immobilised on glass by the protocol used for APOE, or added soluble at 20–50 µM; also called Syb2; unlabelled Sb2; source: E. coli MC1061, periplasmic expression, purified (Ni-NTA, SEC)
Take B2: the binding result was “no binding”.

The values are drawn from PMC12328215, “Interactions between TTYH2 and APOE facilitate endosomal lipid transfer” (Nature, 2025).
